Results reported in patent publication US20240075137A1 (COMPUGEN, published 2024).
Like-named read-outs stand apart in the source and are kept apart here.

T1: human PVRIG on cells (human, UniProt Q6DKI7 1-326)
T1 construct: whole, on cells; over-expressed on HEK cells or endogenous on Jurkat and CD8 T cells; also called hPVRIG; HEK hPVRIG cells
T1 sequence (looked up): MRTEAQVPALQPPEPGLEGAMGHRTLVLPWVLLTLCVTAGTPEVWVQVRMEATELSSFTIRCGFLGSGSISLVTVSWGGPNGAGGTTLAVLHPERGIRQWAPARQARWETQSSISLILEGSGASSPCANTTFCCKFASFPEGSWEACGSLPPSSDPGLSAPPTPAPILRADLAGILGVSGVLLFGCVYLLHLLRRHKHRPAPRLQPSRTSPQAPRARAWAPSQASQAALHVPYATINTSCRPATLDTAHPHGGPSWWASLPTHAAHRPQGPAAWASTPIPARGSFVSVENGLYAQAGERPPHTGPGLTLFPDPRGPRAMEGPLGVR

T2: cynomolgus PVRIG on cells (cynomolgus, UniProt A0A2K5WVV8 41-322)
T2 construct: whole, on cells; also called cPVRIG; expi cPVRIG cells
T2 sequence: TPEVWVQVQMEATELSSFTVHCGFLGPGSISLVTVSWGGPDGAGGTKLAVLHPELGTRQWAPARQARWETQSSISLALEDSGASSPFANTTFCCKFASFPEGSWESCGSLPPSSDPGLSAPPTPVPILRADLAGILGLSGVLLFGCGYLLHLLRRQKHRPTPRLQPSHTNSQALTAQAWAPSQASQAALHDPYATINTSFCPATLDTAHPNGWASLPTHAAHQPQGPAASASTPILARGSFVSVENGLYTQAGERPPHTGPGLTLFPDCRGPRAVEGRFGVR

T3: PVRIG (FACS-based competition assay of FIGS. 7 and 15) (Homo sapiens, UniProt Q6DKI7)
T3 construct: made because the format of the assay is only described in U.S. Ser. No. 15/048,967; also called human PVRIG
T3 sequence (receptor, looked up): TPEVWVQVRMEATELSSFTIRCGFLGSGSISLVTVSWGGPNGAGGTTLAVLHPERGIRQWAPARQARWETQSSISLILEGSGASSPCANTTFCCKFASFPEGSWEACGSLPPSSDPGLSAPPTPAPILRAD

B1: CHA.7.544 (antibody, V domains shown)
VH: QVQLKESGPGLVAPSQSLSITCTVSGFSLTSYAITWVRQPPGKGLEWLGVIWPGGGTNYNSALKSRLSISKDNSKSHLFLKMNSLQTDDTARYYCVRSYDGYLDWYFDVWGTGTTVTVSS
VL: NIVMTQSPKSMSMSVGERVTLSCKASENVGTYVSWYQQKPDQSPKLLIYGASNRYTGVPDRFTGSGSATDFTLIISSVQAEDLSDYHCGQSYSYPYTFGGGTKLEII
B2: CHA.7.508 (antibody, V domains shown)
VH: EVQLQQSGPDLVKPGASMKISCKASGYTFIDYNIHWVKQSQGKSLDWIGYIYPYNGGTGYNQKFKNKATLTVDSSSSTAYMEVRSLTFEDSAVYFCAREADYYGNRGQFDYWGQGTLVTVSA
VL: DIQMTQSPASLSVSVGETVTITCRASENIFSNLAWYQQKQGKSPQLLVYGEANLADGVPSRFSGSGSGTQYSLKINSLQSEDFGNYYCQHFWGTPYTFGGGTTLEIK
B3: CHA.7.522 (antibody, V domains shown)
VH: QVQLQQPGSELVRPGTSVKLSCKASGYTFTSYWVHWVRQRHGQGLEWIGNVYPGSGSTNYDEKFKSKGTLTVDTSSSTAYMHLSSLTSEDSAVYYCTRGVLRFPLDYWGQGTTLTVSS
VL: DIVMTQAAPSVPVTPGESVSISCRSSKSLLHSNGNTYLYWFLQRPGQSPHLLIYRMSNLASGVPDRFSGSGSGTAFTLRISRVEAEDVGVYYCMQHLEYPLTFGAGTKLELK
B4: CHA.7.510 (antibody, V domains shown)
VH: QVTLKESGPGILQPSQTLSLTCSFSGFSLNTSGTGVGWIRQPSGKGLEWLTHIWWNDNKFYNTFLKSRLTISKETSNNQVFLKIASVDTADAATYYCARMAYGNLWFVNWGQGTLVAVST
VL: DIVLTQSPASLAVSLGQRASISCRASRSVTISGYSYMYWYQQKPGQPPRLLFYLASNLASGVPARFSGSGSGTDFTLNIHPVEEEDAAIYYCQHSRELPYTFGGGTKLEIK
B5: CHA.7.514 (antibody, V domains shown)
VH: EVQLRQSGADLVKPGASVKLSCTASGFNIKDTYIDWVKQRPEQGLDWIGRIDPANGNTKYDPKFQGKATIITDTSSNTAYLQLSNLTSEDTAVYYCARYGSYPYFDYWGRGTTLAVSS
VL: SIVMTQTPKFLLISAGDRVTITCKASQSVRNDVAWYQQKPGQSPKLLMYYASNRYTGVPDRFTGSGYGTDFTFTISTVQAEDLAVYFCQQDYSSPPTFGGGTKLEIK
B6: CHA.7.512 (antibody, V domains shown)
VH: QIQLVQSGPELKKPRETVKISCKASGYTFTDYSMHWVKQAPGKGLKWMGWINTETGEPTYADDFKGRFAFSLEASASSAYLQINILKDEDTATYFCARSRGGYYEDYYALDYWGQGTSVTVSS
VL: DIQMTQSPASLSASVGESVTITCRASGNIHYYLAWYQQKQGKSPQLLVYNAKNLADGVPSRFSGSGSGTQFSLKINSLQPEDFGSYYCQHFWISPPTFGGGTKLEIK

Tests used:
[1] = target: T1, human PVRIG on cells; assay: FACS, HEK hPVRIG cells (HEK OE)
[2] = target: T1, human PVRIG on cells; assay: FACS, human PBMC, CD8+ T cells, 10ug/ml
[3] = target: T1, human PVRIG on cells; assay: FACS, human PBMC, CD8+ T cells, 10ug/ml; remark: listed apart in the source
[4] = target: T1, human PVRIG on cells; assay: FACS, human PBMC, CD56 int. NK cells, 10ug/ml
[5] = target: T1, human PVRIG on cells; assay: FACS, human PBMC, CD56 int. NK cells, 10ug/ml; remark: listed apart in the source
[6] = target: T1, human PVRIG on cells; assay: FACS, Jurkat cells, relative to control, 3.3ug/ml
[7] = target: T1, human PVRIG on cells; assay: FACS, HEK hPVRIG over HEK parental cells, 3.3ug/ml
[8] = target: T2, cynomolgus PVRIG on cells; assay: FACS, expi cPVRIG over expi parental cells, 3.3ug/ml
[9] = target: T2, cynomolgus PVRIG on cells; assay: as above; remark: listed apart in the source
[10] = target: T1, human PVRIG on cells; assay: FACS, HEK hPVRIG cells (HEK OE); remark: listed apart in the source
[11] = target: T1, human PVRIG on cells; assay: FACS, human PBMC, CD8+ T cells, 10ug/ml; remark: listed apart in the source
[12] = target: T1, human PVRIG on cells; assay: FACS, human PBMC, CD56 int. NK cells, 10ug/ml; remark: listed apart in the source
[13] = target: T1, human PVRIG on cells; assay: FACS, Jurkat cells, relative to control, 3.3ug/ml; remark: listed apart in the source
[14] = target: T1, human PVRIG on cells; assay: FACS, HEK hPVRIG over HEK parental cells, 3.3ug/ml; remark: listed apart in the source
[15] = target: T2, cynomolgus PVRIG on cells; assay: FACS, expi cPVRIG over expi parental cells, 3.3ug/ml; remark: listed apart in the source
[16] = target: T3, PVRIG (FACS-based competition assay of …); assay: FACS-based competition assay of PVRIG blocking; format and competitor not given
[17] = target: T3, PVRIG (FACS-based competition assay of …); assay: as above; remark: listed apart in the source

Binder	EC50 [1]	gMFIr Human CD8+ T cells [2]	gMFIr Human CD8+ T cells [3]	gMFIr Human CD56 int. NK [4]	gMFIr Human CD56 int. NK [5]	gMFIr Jurkat [6]	gMFIr HEK OE/par [7]	gMFIr Expi cyno OE/par [8]	gMFIr Expi cyno OE/par [9]	EC50 [10]	gMFIr Human CD8+ T cells [11]	gMFIr Human CD56 int. NK [12]	gMFIr Jurkat [13]	gMFIr HEK OE/par [14]	gMFIr Expi cyno OE/par [15]	IC50 [16]	IC50 [17]
B1	0.76 nM	2.54	2.54	2.36	2.36	5.68	42.6	61.1	61.1								
B2			4.09		3.6				41.5	3.3 nM	4.09	3.6	6.5	45.9	41.5	37.9 nM	37.9 nM
B3			1.9		2.06				27.2	91.4 nM	1.9	2.06	2.99	10.1	27.2	50.5 nM	50.5 nM
B4			2.73		3.13				38.2	92.8 nM	2.73	3.13	4.19	16.3	38.2	55 nM	55 nM
B5			5.15		4.16				65.2	5.31 nM	5.15	4.16	7.67	49.8	65.2	38.9 nM	38.9 nM
B6			1.15		1.3				8.96	53 nM	1.15	1.3	1.47	5.12	8.96	840 nM	840 nM
